± gives the standard deviation of the averaged measurements.
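Further: ATP exposure 15 min at 22 °C before imaging.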

The data set deals with ATP. Kind of data set: switch fluorescence ratio, 500 uM ATP over buffer (Cy3 cluster intensity, sum of 5 cycles each) (fold (ratio)); higher = stronger signal-on switching upon ATP binding; sequences stand for … in TCGTCGGCAGCGTCAGATGTGTATAAGAGACAGTTTTTTTTTTTTTTTTTTTTTTTTT…TC. The following applies: aptamer strand: ATP DNA aptamer (quencher-CACCTGGGGGAGTATTGCGGAGGAAGG + anchor), 100 nM annealed; ATP concentration: 500 uM. A digest of the protocol: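 The quencher-labelled ATP aptamer, at 100 nM, was annealed to Cy3-labelled switching-strand clusters on a modified Illumina MiSeq flow-cell. The clusters were imaged in selection buffer, then after 15 min with 500 uM ATP at 22 °C, and this buffer/ATP cycle ran five times with NaOH stripping and re-annealing between runs. Per-cluster fluorescence ratios, summed target-cycle over summed buffer-cycle Cy3 intensity, were averaged per switch-domain sequence. Clusters outside 100-1000 RFU were excluded.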
Regarding CGGAGTACGG, the switch fluorescence ratio stood at 1.06 ± 0.075.

GTCGATGGGG: the switch fluorescence ratio was found to be 0.969 ± 0.014.

For CGGCTTATGG, the switch fluorescence ratio turned out to be 1.03 ± 0.07.

With GACCCTTAGA, the switch fluorescence ratio stood at 1.01 ± 0.011.

As for ACAGGTTTGC, the switch fluorescence ratio came out at 1.007 ± 0.0039.

As to TATCGAAGTT, the switch fluorescence ratio turned out to be 1.013 ± 0.0018.

Consider AGAGTGGACA, for which the switch fluorescence ratio is 1 ± 0.042.

In the case of TTTTCTGGCT, the switch fluorescence ratio was 1.04 ± 0.035.

For GAAAGGCTCT, the switch fluorescence ratio is 0.9793 ± 0.0031.

Turning to ATATTTTTGT, the switch fluorescence ratio is 1.03 ± 0.014.

Consider AAGATGGTTA, for which the switch fluorescence ratio was determined as 0.97 ± 0.01.

Regarding GAGCGAAGGA, the switch fluorescence ratio is 1.01 ± 0.029.

Regarding GGAAGAGGAA, the switch fluorescence ratio turned out to be 0.988 ± 0.025.

Turning to CTAGTCGTCG, the switch fluorescence ratio was determined as 1.02 ± 0.019.

Turning to TCGCCAAATT, the switch fluorescence ratio was found to be 1.1 ± 0.21.

Regarding ATTCTTAATG, the switch fluorescence ratio was 1.01 ± 0.021.

Regarding GTTAAGGGGC, the switch fluorescence ratio amounted to 0.996 ± 0.017.

As for GGGCTTTAAA, the switch fluorescence ratio came to 1.01 ± 0.012.

With TGGAGAAGGC, the switch fluorescence ratio was 0.977 ± 0.12.

For GCTAGCGGAC, the switch fluorescence ratio turned out to be 1.14 ± 0.025.

As for AGGATCGGAT, the switch fluorescence ratio worked out at 1.04 ± 0.003.

As for ACCAGGGAAA, the switch fluorescence ratio turned out to be 1.01 ± 0.014.

GACACTTGCT: the switch fluorescence ratio stood at 0.99 ± 0.035.

For the sequence GATGAACCTA, the switch fluorescence ratio amounted to 1.04 ± 0.024.

With TAGGCGTTGG, the switch fluorescence ratio worked out at 0.972 ± 0.033.

Take ATGAGCTGTG: the switch fluorescence ratio came out at 1.01 ± 0.056.

With ACAGCATGCC, the switch fluorescence ratio is 0.997 ± 0.013.

On to GGCACATGGG, for which the switch fluorescence ratio worked out at 1.01 ± 0.028.

For the sequence TCCGCGGGTG, the switch fluorescence ratio stood at 1.61 ± 0.82.

On to GATCATCGAT, for which the switch fluorescence ratio was found to be 1.02 ± 0.013.

Turning to AAGTATAATA, the switch fluorescence ratio was determined as 1.01 ± 0.035.

Take AATTACCAAA: the switch fluorescence ratio was 1.01 ± 0.072.

AAATAAACGA: the switch fluorescence ratio came out at 0.98 ± 0.0072.

Turning to CGTAAAATTT, the switch fluorescence ratio was 1.05 ± 0.12.

Regarding TTTGTAAGTG, the switch fluorescence ratio is 0.988 ± 0.018.

For TAAGGTTGCA, the switch fluorescence ratio turned out to be 0.983 ± 0.032.

Consider CATGTAGGCA, for which the switch fluorescence ratio turned out to be 0.99 ± 0.046.

Take ATTCGATATG: the switch fluorescence ratio is 0.997 ± 0.011.

Consider GTTGTAATGG, for which the switch fluorescence ratio was 1.01 ± 0.049.

Take GGGTTCAGGC: the switch fluorescence ratio worked out at 1.05 ± 0.059.

Consider TAGAGATGGG, for which the switch fluorescence ratio stood at 1.02 ± 0.028.

In the case of ACTGGGTATT, the switch fluorescence ratio is 0.963 ± 0.061.

Regarding TGTTATCAGG, the switch fluorescence ratio was found to be 1.01 ± 0.038.

Take GCTGGGATTA: the switch fluorescence ratio was found to be 0.984 ± 0.012.

With TGCCTGGCAG, the switch fluorescence ratio was 1.08 ± 0.1.

Turning to TCGAGCCATA, the switch fluorescence ratio is 1.08 ± 0.046.

As for GGGCGTAACT, the switch fluorescence ratio was found to be 0.991 ± 0.041.

For the sequence CGGTAGGCTT, the switch fluorescence ratio came out at 0.996 ± 0.037.

As to GCATCCCGAG, the switch fluorescence ratio was 1.02 ± 0.025.

Consider CGTTTAAATC, for which the switch fluorescence ratio stood at 0.986 ± 0.013.

For the sequence ATATATAGTC, the switch fluorescence ratio came out at 1.02 ± 0.025.

On to TATGAGTGAC, for which the switch fluorescence ratio was 1.02 ± 0.016.

With AATGGTTTTG, the switch fluorescence ratio was determined as 0.9921 ± 0.0034.

Turning to ATAAGTTGGT, the switch fluorescence ratio worked out at 0.987 ± 0.046.

For CGTTTTGGCA, the switch fluorescence ratio came out at 1.02 ± 0.027.

With TTACCCTAGG, the switch fluorescence ratio was 1.14 ± 0.024.

Turning to TTGTGAAGCA, the switch fluorescence ratio turned out to be 1.025 ± 0.0054.

For the sequence TGGCTGGTGT, the switch fluorescence ratio was determined as 1.02 ± 0.08.

As for TTGTTTTCGT, the switch fluorescence ratio is 1.01 ± 0.039.

For the sequence AAGAGAATGG, the switch fluorescence ratio was 0.984 ± 0.052.

On to GGGGGGCGTC, for which the switch fluorescence ratio came out at 1.02 ± 0.016.

On to GTGTGATGTG, for which the switch fluorescence ratio was determined as 0.9681 ± 0.0051.

For the sequence TCCATCAGCT, the switch fluorescence ratio was 1.1 ± 0.025.

AGCAGGGGTT: the switch fluorescence ratio was determined as 1 ± 0.053.

Consider GGGTTGCCGT, for which the switch fluorescence ratio worked out at 0.977 ± 0.036.

Regarding GACCATGTAC, the switch fluorescence ratio came out at 1.48 ± 0.1.

As to GGGAGGGGAA, the switch fluorescence ratio stood at 1.1 ± 0.15.

With GCTTATTCGG, the switch fluorescence ratio turned out to be 0.959 ± 0.03.

On to AAGACTTTGT, for which the switch fluorescence ratio was found to be 1 ± 0.024.

On to TTTTTAACTA, for which the switch fluorescence ratio stood at 0.993 ± 0.012.

Turning to CATTGCAGAT, the switch fluorescence ratio amounted to 0.981 ± 0.037.

With CGAAAAGGGA, the switch fluorescence ratio came to 1.01 ± 0.029.

As to ATTTGAAAGT, the switch fluorescence ratio turned out to be 1.02 ± 0.011.

On to AAAAGTTGTT, for which the switch fluorescence ratio is 1.04 ± 0.019.

Regarding GATTGAGGGG, the switch fluorescence ratio stood at 1.01 ± 0.017.

As to GGAAATGTTT, the switch fluorescence ratio was found to be 1.01 ± 0.026.

With AGCAAGGGCA, the switch fluorescence ratio amounted to 1.0103 ± 6.2e-05.

Turning to CGTCATCGGG, the switch fluorescence ratio stood at 0.973 ± 0.029.

Values taken from the supplement of paper PMC10126150.
